Sequences and labels used below:
T1: Sec3 (S. cerevisiae, UniProt P33332 1-1336)
T1 sequence: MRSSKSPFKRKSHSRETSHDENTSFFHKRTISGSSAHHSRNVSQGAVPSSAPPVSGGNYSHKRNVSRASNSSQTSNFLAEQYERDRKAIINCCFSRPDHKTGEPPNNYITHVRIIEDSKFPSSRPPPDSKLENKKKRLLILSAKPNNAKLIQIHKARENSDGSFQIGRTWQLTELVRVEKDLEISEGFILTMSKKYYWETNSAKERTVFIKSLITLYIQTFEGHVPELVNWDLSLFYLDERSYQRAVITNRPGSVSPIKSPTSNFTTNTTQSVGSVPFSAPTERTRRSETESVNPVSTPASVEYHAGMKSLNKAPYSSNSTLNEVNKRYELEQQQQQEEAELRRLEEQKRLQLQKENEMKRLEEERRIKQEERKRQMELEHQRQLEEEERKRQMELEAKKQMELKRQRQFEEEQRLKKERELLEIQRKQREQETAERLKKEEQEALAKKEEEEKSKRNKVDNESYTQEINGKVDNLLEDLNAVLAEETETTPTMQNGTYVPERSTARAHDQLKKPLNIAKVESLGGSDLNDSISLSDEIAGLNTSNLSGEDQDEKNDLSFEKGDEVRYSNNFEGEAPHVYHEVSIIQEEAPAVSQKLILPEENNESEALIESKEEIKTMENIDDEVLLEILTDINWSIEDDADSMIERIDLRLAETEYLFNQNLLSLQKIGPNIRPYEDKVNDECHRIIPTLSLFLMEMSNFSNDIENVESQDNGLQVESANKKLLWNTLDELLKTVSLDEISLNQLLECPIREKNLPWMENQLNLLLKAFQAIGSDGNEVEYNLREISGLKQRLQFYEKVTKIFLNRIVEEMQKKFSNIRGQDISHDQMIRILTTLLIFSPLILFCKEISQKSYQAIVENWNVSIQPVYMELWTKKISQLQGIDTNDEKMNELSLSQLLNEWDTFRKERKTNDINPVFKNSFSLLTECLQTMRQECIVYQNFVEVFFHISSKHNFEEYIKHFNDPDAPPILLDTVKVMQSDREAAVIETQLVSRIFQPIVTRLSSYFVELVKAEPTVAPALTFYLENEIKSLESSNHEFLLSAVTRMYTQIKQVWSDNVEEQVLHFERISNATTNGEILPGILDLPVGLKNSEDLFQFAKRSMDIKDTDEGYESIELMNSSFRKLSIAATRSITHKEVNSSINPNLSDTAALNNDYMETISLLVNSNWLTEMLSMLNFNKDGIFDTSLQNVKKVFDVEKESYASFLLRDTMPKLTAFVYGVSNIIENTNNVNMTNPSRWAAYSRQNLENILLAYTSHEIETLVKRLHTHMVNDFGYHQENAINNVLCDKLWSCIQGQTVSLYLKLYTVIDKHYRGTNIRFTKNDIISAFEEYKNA

B1: Sec5 (natural protein)
chain: MDRFQIGDEQLLRFYQLKTINPTHSWAQDSSKLNNEEATSNELGVETSFDILKDFKYGNQISIDKESRAYLNDESLSYIRDPLNGQEMSKELQHLPNDSMRLNYLVNSKQFNVKAFLRDMHKQDSFNDLNNSLDRLDSDIQDQSIHLKQLVGKNFTKYVKIKNKLDQIYKEFDEKTNEKNQCDSPKENQINVESLNKKVDEVIRTTTFKLKPLMDNYQKILNYQATKKFIELNKFYFNLPKSLKRCLTNNDFNEFIIEYSKGLTLRRRFNQSSDASQSLVIKRIWTQIENLLVTYKDLIWNSLINSNFNIDQPQETILSLFSKLLNLENFINNNQRESESGNKNTTSSSNENPILRWMSIKMNGFQNELNELSGHMISKIIHSQRLILQNNTNQDKSQGCVELSYYLKINQLFQIISDTGKDSEGLKSTVEPNKVNTISGTSYLNLNCQPSSQGLTDSPTIIEMWLLILKYINDLWKICDQFIEFWEHIEKFLDGTYQNSIINEKRKENILIGDSNIIESYQKSLILKEEQINEVRLKGEEFITSVSQNLISFFTSSQSSLPSSLKDSTGDITRSNKDSGSPLDYGFIPPNCNGLSCLRYLPKIVEPILKFSTELAQLNITTNGITICRNTLSTIINRCVGAISSTKLRDISNFYQLENWQVYETVTFSSKSQDSSKNLTFEYGVTQFPEIVTSFQEVSIKTTRDLLFAYEKLPIINGISVVSYPSKQLLTGIEIQQIISMEAVLEAILKNAAKDKDNPRNSHTILTLTNLQYFRECAFPNILQYFDDAFEWNLASKNLELFSLLSKMESSIFGNYLSDLKINLRDTLEEKFHEINWPMYTSNSFRVGDYIIEALMILIVVHSECFRIGPQLIHKILIETQIFIARYLFEAFKPYVGNLSNDGSLQIIVDLEFFQKVMGPLLEKDTEATLRACLQNCFQNDTNRLQKCINEINPIVSANLKRTAIQFAAFS
B2: Sec15 (natural protein)
chain: MDQEGQPLLSKDFQQVLLATASGNNSSWTERAVLNNESTDAVKHEPALGQNDVFDLDPLSFDKWVPFLRRALDKNQLDPVIDELENSIEDNFQGLELQLLQDSQMNDKLETSIDEIANIQGMVQDTLSSEISKFQIRLSESANELIVKKQMYVNNKKISLKISEATILITKVVRILELSSKCQELITERKFFKVLQNLDSLEKLYLQEFKNYNFQFLIEIYNSIPFLQKVTKDECINLIRNSLNLNLGKNLIKVGQEFVAIYENELLPQWLETRSKMKLTNFKFNSPIEISMRDESFLAKLNLGEFFQLDDFHDSIMIFQNLNELSVLSGEFNKEYELRKTKLMYPLIWKKNKTAAYQMDSLLRGTGTTPGSTAHDVSTDDPFTQSLSLHFLQDYFLKILGFLLYDINLNKATEFILVDNNYNSTNEFWDGLMDRLSPYLSYFIDEKLKTEEDMIKLKDFLCIYVAILENFKLNIEPLYKILVSIFEKFCSVSLRAFDDEFQILLNDDDFMPLSINDKTLYEKVLKICWMKEGEHLSLPDPTNGEPFAVTLPFSPLYPMTCTLAKKTYSKITAFLSIFYRHELHTLNNILVKTMDDIFNDIVNKKIRSKLESTSREEIAQILVNLDYFIIAAKEFSNFMTRENILQNPDMEIRLSSIKYLAESRKLAETKLIELIDSKISDILETIEIDWQITEVRQDPDISIIDLAQFLEMMFASTLQNLPYSVQTLLIFREFDSLTRQFMGLLLHDTPSTITHESIMNFEVDVNYLESIIPRIFPSTPGTIDSNGYQSPMTPSTPTFPNANGVDAPTLFENNIKSLEATFMELKQCIELLKTQGKDYNEPEIRLRKYSRIRQEDAALLLSKIQHFVSSVEGANGDDTSVMDSSSIFNSESASVIDSNTSRIAKFFNRR
B3: Sec8 (natural protein)
chain: MDYLKPAQKGRRRGLSINSLSETQQSAMNSSLDHLQNDLNRINLQWNRILSDNTNPLELALAFLDDTSVGLGHRYEEFNQLKSQIGSHLQDVVNEHSQVFNTNVASYGKAVSSIMQAQEQTLNLKNCLKEANEKITTDKGSLQELNDNNLKYTKMIDVLVNIEELLQIPEKIEENIRKENFHQVQILLERGFILMNNKSLKTVEILKPINQQLELQEHLLFNNLIEEIHDIMYSKSNKTNFTRVTNNDIFKIISISHNGFTSLENYLYNIVNIDIMEHSKTINKNLEQFIHDQSLNKGNIMLQENAATQAPLAPSRNQENEGFNRIGFLLKTINNINKLPVAFNIITERAKEEIHNIIVKSTESIRSKHPSLLKMATSLKNDNHFGLPVQDILSIILRECFWEIFLKLLYAIQCHRAIFEMSNILQPTSSAKPAFKFNKIWGKLLDEIELLLVRYINDPELISSNNGSIKPINGATNNAPTLPKRKNPKIFSLEYNIEDNSSVKDQAFELKALLKDIFPGFSVSSNMDLDSIYVKDESFEQDEPLVPPSVFNMKVILDPFLLFTQSTSTIVPSVLTQNTISSLTFFDDYMNKSFLPKIQMTMDYLFTVEVESNNPYALELSDENHNIFKTALDFQRLFYNLLNVFNTANTFREKISYCILDLLNHFYNYYLGLFNSLIGTSDRHLTRKIITAWLQNGILMDQEQKILNGDETLFHEESIELFKEIPHFYQAGKGLSKSDLFNNLTLDTILQFSASVLWILNWLPGLKKAINIDEVSQEPMLDADRLRSSWTFSESMDLNYSNPSSSPNSLGNLKILLDDKASKKFDETIDGFKTLKFKLITILRFNIRALCIYDIGSFFQNTKIWNMDVGSIELDQNIASLISELRRTESKLKQQLPEKEKNSIFIGLDIVNNYALIKGAKSIKVLNHNGIKKMLRNVNVLQHAYRNLSSEPSKINMNVTMNFYSLCGSSEAELFEYIKDNELPHCSVEDLKTILRLQFSEEMHRQLKRQSTSSTKGSIKPSNKRYTEALEKLSNLEKEQSKEGARTKIGKLKSKLNAVHTANEK

The target in the test “Sec8” is B3. Put plainly: […].
The target of a further test is T1, Sec3. Briefly: […].

In the case of B1, the binding result in the test with Sec8 and with Sec3 was “binds” throughout.

On to B2, for which the binding result with Sec8 is on record as “binds”.

Consider B3, for which, in the test with Sec3, the binding result was “binds”.

Values taken from article PMC5971111 (Nature structural & molecular biology, 2018).
